Data as given in the Human Domainome abundance scans (Beltran et al. 2025).
± gives the uncertainty stated by the source.

B1: Zinc finger homeobox protein 3, residues 2643 to 2698; numbered along this chain, Q15911 (parent)
chain: RLRTTITPEQLEILYQKYLLDSNPTRKMLDHIAHEVGLKKRVVQVWFQNTRARERK

Variants of: B1
Experiment: abundance fitness (aPCA) (normalised: wild type 0, dead -1); higher = more abundant; growth selection in yeast, the domain comes from the species named
Details: Homo sapiens

| Variant | abundance fitness |
| --- | --- |
| RLRTTITPEQLEILYQKYLLDSIPTRKMLDHIAHEVGLKKRVVQVWFQNTRARERK [N23I] | -0.414 ± 0.23 |
| RLRTTITPEQLEILYQKYLLDSRPTRKMLDHIAHEVGLKKRVVQVWFQNTRARERK [N23R] | -0.118 ± 0.087 |
| RLRTTITPEQLEILYQKYLLDSNPTRKMLDHIAHEVGLKKRVVQVWFINTRARERK [Q48I] | -0.687 ± 0.32 |
| RLRTTITPEQLEILYQKYLLDSNPNRKMLDHIAHEVGLKKRVVQVWFQNTRARERK [T25N] | -0.206 ± 0.2 |
| RLRTTITPEQLEILYQKYLLDSNPGRKMLDHIAHEVGLKKRVVQVWFQNTRARERK [T25G] | -0.394 ± 0.074 |
| RLRTTITPEQLEILYQKYLLDSNPLRKMLDHIAHEVGLKKRVVQVWFQNTRARERK [T25L] | -0.552 ± 0.095 |
| RLRTTITPEQLEILYQKYLLDSNPTRKMLYHIAHEVGLKKRVVQVWFQNTRARERK [D30Y] | -0.269 ± 0.14 |
| RLRTTITPEQLEILYQKYLLDSNPTRKMLTHIAHEVGLKKRVVQVWFQNTRARERK [D30T] | -0.312 ± 0.13 |
| RLRTTITPEQLEILYQKYLLDSNPTRKMLDHIAEEVGLKKRVVQVWFQNTRARERK [H34E] | 0.099 ± 0.16 |
| RLRTTITPEQLEILYQKYLLDSNPTRKMLDHIAHEKGLKKRVVQVWFQNTRARERK [V36K] | -0.985 ± 0.35 |
| RLRTTITPEQLEILYQKYLLSSNPTRKMLDHIAHEVGLKKRVVQVWFQNTRARERK [D21S] | -0.417 ± 0.11 |
| RLRTTITPDQLEILYQKYLLDSNPTRKMLDHIAHEVGLKKRVVQVWFQNTRARERK [E9D] | -0.042 ± 0.092 |
| RLRTTITPPQLEILYQKYLLDSNPTRKMLDHIAHEVGLKKRVVQVWFQNTRARERK [E9P] | -0.293 ± 0.082 |
| RLRTTITPGQLEILYQKYLLDSNPTRKMLDHIAHEVGLKKRVVQVWFQNTRARERK [E9G] | -0.234 ± 0.081 |
| RLRTTITPHQLEILYQKYLLDSNPTRKMLDHIAHEVGLKKRVVQVWFQNTRARERK [E9H] | -0.229 ± 0.082 |
| RLRTTITPTQLEILYQKYLLDSNPTRKMLDHIAHEVGLKKRVVQVWFQNTRARERK [E9T] | -0.211 ± 0.085 |
| RLRTTITPEQLEILYQKYLLDSNPTRKMADHIAHEVGLKKRVVQVWFQNTRARERK [L29A] | -0.552 ± 0.099 |
| RLRTTITPEQLEILYQKYLLDSNPTRKMLDHIAHEVGLVKRVVQVWFQNTRARERK [K39V] | -0.01 ± 0.092 |
| RLRTTITPEQLEILYQKYLLDSNPTRKMLDHIAHEVGLMKRVVQVWFQNTRARERK [K39M] | 0.13 ± 0.11 |
| RLRTTITPEQLEILYQKYLLDSNPTRKMLDHIAHEVGLPKRVVQVWFQNTRARERK [K39P] | 0.224 ± 0.12 |
| RLRTTITPEQLEILYQKYVLDSNPTRKMLDHIAHEVGLKKRVVQVWFQNTRARERK [L19V] | -0.12 ± 0.11 |
| RLRTTITPEQLEILYQKYNLDSNPTRKMLDHIAHEVGLKKRVVQVWFQNTRARERK [L19N] | -0.422 ± 0.16 |
| RLRTTITPEQLEILYQKYQLDSNPTRKMLDHIAHEVGLKKRVVQVWFQNTRARERK [L19Q] | -0.233 ± 0.13 |
| RLRTTITPEQLEILYQKYCLDSNPTRKMLDHIAHEVGLKKRVVQVWFQNTRARERK [L19C] | -0.032 ± 0.12 |

| Variant | abundance fitness |
| --- | --- |
| RLRTTITPEQYEILYQKYLLDSNPTRKMLDHIAHEVGLKKRVVQVWFQNTRARERK [L11Y] | -0.024 ± 0.15 |
| RLRTTITWEQLEILYQKYLLDSNPTRKMLDHIAHEVGLKKRVVQVWFQNTRARERK [P8W] | 0.193 ± 0.12 |
| RLRTTITPEQLEILYQKYLLDSNPTRKMLDHIAHEVGLKKRVVQVWFQNTRARERE [K56E] | 0.466 ± 0.2 |
| RLRTTITPEQLEILYQKYLLDSNPTRKMLDHIAHEVGLKKRVVQVWFQNTRARERA [K56A] | 0.034 ± 0.33 |
| RLRTTITPEQLEILYQKYLLDSNPTRKMLDHIAHEVGLKKRVVQVWFQNTRARERS [K56S] | 0.262 ± 0.14 |
| RLRTTITPEQLIILYQKYLLDSNPTRKMLDHIAHEVGLKKRVVQVWFQNTRARERK [E12I] | -0.438 ± 0.19 |
| RLRTTITPEQLEILYQKVLLDSNPTRKMLDHIAHEVGLKKRVVQVWFQNTRARERK [Y18V] | -0.644 ± 0.1 |
| RLRTTITPEQLEILYQKGLLDSNPTRKMLDHIAHEVGLKKRVVQVWFQNTRARERK [Y18G] | -0.899 ± 0.093 |
| RLRTTITPEQLEQLYQKYLLDSNPTRKMLDHIAHEVGLKKRVVQVWFQNTRARERK [I13Q] | -0.095 ± 0.12 |
| RLRTTITPEQLEYLYQKYLLDSNPTRKMLDHIAHEVGLKKRVVQVWFQNTRARERK [I13Y] | 0.012 ± 0.14 |
| RLRTTITPEQLEILYQKYLLDSNPTRKMLDHIAHEVGLKKRVVQVWQQNTRARERK [F47Q] | -0.887 ± 0.16 |
| RLRTTITPEQLEILYQKYLLDSNPTRKMLDHIAHEVGLKKRVVQVWDQNTRARERK [F47D] | -0.833 ± 0.23 |
| RLRTTITPEQLEILYQKYLLDSNPTRKMLDHIAHEVGLKKRVVQVWLQNTRARERK [F47L] | -0.639 ± 0.098 |
| RLRTTITPEQLEILYQKYLLDSNPTRKMLDHIAHEVGLKKRVVQVWTQNTRARERK [F47T] | -0.997 ± 0.19 |
| RLRTTITPEQLEIKYQKYLLDSNPTRKMLDHIAHEVGLKKRVVQVWFQNTRARERK [L14K] | -0.899 ± 0.16 |
| RLRTTITPEQLEIRYQKYLLDSNPTRKMLDHIAHEVGLKKRVVQVWFQNTRARERK [L14R] | -0.847 ± 0.089 |
| RLRTTITPEQLEILCQKYLLDSNPTRKMLDHIAHEVGLKKRVVQVWFQNTRARERK [Y15C] | -0.368 ± 0.13 |
| RLRTTITPEQLEILHQKYLLDSNPTRKMLDHIAHEVGLKKRVVQVWFQNTRARERK [Y15H] | -0.152 ± 0.16 |
| RLWTTITPEQLEILYQKYLLDSNPTRKMLDHIAHEVGLKKRVVQVWFQNTRARERK [R3W] | 0.241 ± 0.1 |
| RLYTTITPEQLEILYQKYLLDSNPTRKMLDHIAHEVGLKKRVVQVWFQNTRARERK [R3Y] | 0.006 ± 0.17 |
| RLRTTITPEQLEILYQKYLLDSNITRKMLDHIAHEVGLKKRVVQVWFQNTRARERK [P24I] | -0.747 ± 0.17 |
| RLRTTITPEQLEILYQKYLLDSNPTRKMLDHIAHEVGLKKRVVQVWFQNFRARERK [T50F] | -0.322 ± 0.19 |
| RLRTTITPEQLEILYQKYLLDSNPTRKMLDHIAHEVGLKKRVVQVWFQNQRARERK [T50Q] | 0.243 ± 0.12 |
